Literature values in publication PMC6953883, “Alterations of aqueous humor Aβ levels in Aβ-infused and transgenic mouse models of Alzheimer disease” (PLoS ONE, 2020).

Conditions: previous studies

Substance: Aβ: amyloid-β peptide of cited efflux and retention studies; Shibata et al. used Aβ(1-40)
- half-time of Aβ efflux from CSF to blood: 34.63 min
